Measured values as given in patent publication US20100204147A1, “Methods For Delivering Thymosin Beta 4, Analogues, Isoforms and Other Derivatives” (REGENERX BIOPHARMACEUTICALS, INC., priority 2003, published 2010).

Biological target: T1, fibrin (Homo sapiens, UniProt P02671)
T1 construct: purchased Enzyme Research Laboratories (South Bend, Ind.); host or cells: fibrin generated in the well or tube from the purchased fibrinogen with bovine thrombin
T1 sequence (P02671 36-629): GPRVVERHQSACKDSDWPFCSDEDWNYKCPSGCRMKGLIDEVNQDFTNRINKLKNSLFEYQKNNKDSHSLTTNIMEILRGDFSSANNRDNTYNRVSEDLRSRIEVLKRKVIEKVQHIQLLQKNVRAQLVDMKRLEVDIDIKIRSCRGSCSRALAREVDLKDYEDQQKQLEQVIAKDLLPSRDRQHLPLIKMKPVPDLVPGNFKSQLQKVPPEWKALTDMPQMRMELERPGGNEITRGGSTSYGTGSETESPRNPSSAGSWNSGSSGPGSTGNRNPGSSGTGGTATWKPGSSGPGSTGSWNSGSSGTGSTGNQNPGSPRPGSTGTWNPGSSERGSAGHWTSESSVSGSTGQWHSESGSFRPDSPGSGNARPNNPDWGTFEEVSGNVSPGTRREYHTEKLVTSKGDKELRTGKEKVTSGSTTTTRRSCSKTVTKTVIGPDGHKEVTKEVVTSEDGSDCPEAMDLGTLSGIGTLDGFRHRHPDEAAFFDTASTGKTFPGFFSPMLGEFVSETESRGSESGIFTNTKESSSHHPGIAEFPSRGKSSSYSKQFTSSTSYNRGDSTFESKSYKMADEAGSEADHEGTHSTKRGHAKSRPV
T1 sequence (P02675 45-491 partner): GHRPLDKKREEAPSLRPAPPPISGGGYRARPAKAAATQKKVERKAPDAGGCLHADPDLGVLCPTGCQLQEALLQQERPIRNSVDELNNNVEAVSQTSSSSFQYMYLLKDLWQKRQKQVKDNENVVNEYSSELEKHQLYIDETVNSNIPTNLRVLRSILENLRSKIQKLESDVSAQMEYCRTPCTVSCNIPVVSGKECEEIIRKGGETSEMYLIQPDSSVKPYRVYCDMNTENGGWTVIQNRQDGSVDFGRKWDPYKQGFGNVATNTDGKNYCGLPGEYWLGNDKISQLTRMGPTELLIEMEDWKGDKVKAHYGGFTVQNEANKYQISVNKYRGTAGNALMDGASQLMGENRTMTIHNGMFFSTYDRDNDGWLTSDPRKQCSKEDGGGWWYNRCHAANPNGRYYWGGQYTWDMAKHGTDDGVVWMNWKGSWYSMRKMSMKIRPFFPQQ
T1 sequence (P02679 27-437 isoform P02679-2 partner): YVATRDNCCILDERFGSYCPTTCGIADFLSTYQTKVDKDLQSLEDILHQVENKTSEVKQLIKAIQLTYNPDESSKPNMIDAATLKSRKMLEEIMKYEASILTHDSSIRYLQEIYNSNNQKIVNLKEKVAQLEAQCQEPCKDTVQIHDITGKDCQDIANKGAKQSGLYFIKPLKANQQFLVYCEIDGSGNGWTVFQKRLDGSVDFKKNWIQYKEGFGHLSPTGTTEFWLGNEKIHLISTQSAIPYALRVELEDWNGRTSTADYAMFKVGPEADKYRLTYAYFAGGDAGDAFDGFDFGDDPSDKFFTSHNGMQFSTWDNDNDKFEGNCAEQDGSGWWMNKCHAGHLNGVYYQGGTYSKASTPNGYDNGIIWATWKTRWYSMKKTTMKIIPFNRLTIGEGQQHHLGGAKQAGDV
Assay: Western blot time course of factor XIIIa-mediated incorporation into fibrin
Type: biochemical
Details: mixture of thrombin, factor XIII, thymosin β4 and fibrin; immunoblotting
Description: Reactions of incorporation of FITC-labeled and unlabeled thymosin β4 into fibrinogen and fibrin were performed in Eppendorf tubes containing a mixture of fibrinogen at 3 mg/mL (9 μM) and thymosin β4 or FITC-labeled thymosin β4 at […] (30 μM) in 100 μL TBS with 2.5 mM CaCl2. The reactions were initiated by addition of FXIIIa(Ca) or FXIIIa(Thr) to final concentration of 30 μg/mL. The final concentration of thrombin in the FXIIIa(Thr)-containing mixtures was made at 2.5 NIH u/mL, sufficient to rapidly form fibrin clot which was observed visually. The reactions with FITC-labeled thymosin β4 lasted for 4 hours at 37° C. in the dark and were stopped by heat inactiviation of the enzymes in boiling water for 5 min during fibrinogen and fibrin denatured and precipitated. The pellets were centrifuged and washed 3 times in TBS and then solubilized. The amounts of fibrin(ogen) and FITC-labeled thymosin β4 in the solubilized pellet were determined spectrophotomertrically using absorption molar coefficients E280,1%=15.0 and ε495=72,000 M^−1cm^−1, respectively. […]
Detection of thymosin β4 incorporated into fibrin(ogen) and its fragments was performed as follows. […] The membrane was blocked with a casein blocker for 1 hour and thymosin β4 was detected by the reaction with rabbit anti-thymosin β4 serum and peroxidase-conjugated anti-rabbit IgG. […]

- time at which the amount of incorporated (cross-linked) thymosin β4 reaches saturation: 4 h
Substance: thymosin β4
